The test system of series [1] is HeLa Kyoto. Put plainly: solubility in G1/S (NP-40 vs SDS abundance) (log2 ratio); higher = more soluble. As to conditions: cell cycle stage: G1/S.
Series [2] deals with HeLa Kyoto. Put plainly: melting temperature (median over replicates), in situ; higher = more thermally stable.
In series [3] the test system is HeLa Kyoto. Put plainly: solubility change mitosis vs G1/S (difference of NP-40 vs SDS log2 ratios) (log2 ratio difference); higher = more soluble in mitosis.
In series [4] the test system is HeLa Kyoto. Put plainly: thermal stability score vs G1/S (z-score of summed log2 fold changes over temperatures); higher = more thermally stable than in G1/S.
The mark [5] stands for this setting: cell cycle stage: early G1 (4.5 h after nocodazole release).

The record followed here is the supplement of paper PMC5998384.
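Throughout, for melting temperature (median over replicates), in situ: HeLa Kyoto cells synchronized by double thymidine or nocodazole block, proteins quantified by TMT10plex mass spectrometry, three independent biological replicates.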
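Throughout, for solubility change mitosis vs G1/S (difference of NP-40 vs SDS log2 ratios): synchronized HeLa Kyoto cells (double thymidine block for G1/S, nocodazole release for mitosis), protein amounts in NP-40 versus SDS lysates quantified by mass spectrometry, three biological replicates.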
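Throughout, for solubility in G1/S (NP-40 vs SDS abundance): HeLa Kyoto cells arrested at G1/S by double thymidine block, proteins quantified by TMT10plex mass spectrometry in mild NP-40 versus SDS extracts, three biological replicates.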
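Throughout, for thermal stability score vs G1/S (z-score of summed log2 fold changes over temperatures): synchronized HeLa Kyoto cells, proteins quantified by TMT10plex mass spectrometry, three biological replicates, mitosis taken 0.5 h after nocodazole release, G1/S directly after double thymidine block.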

As for “MADAWEEIRRLAADFQRAQFAEATQRLSERNCIEIVNKLIAQKQLEVVHTLDGKEYITPAQISKEMRDELHVRGGRVNIVDLQQVINVDLIHIENRIGDIIKSEKHVQLVLGQLIDENYLDRLAEEVNDKLQESGQVTISELCKTYDLPGNFLTQALTQRLGRIISGHIDLDNRGVIFTEAFVARHKARIRGLFSAITRPTAVNSLISKYGFQEQLLYSVLEELVNSGRLRGTVVGGRQDKAVFVPDIYSRTQSTWVDSFFRQNGYLEFDALSRLGIPDAVSYIKKRYKTTQLLFLKAACVGQGLVDQVEASVEEAISSGTWVDIAPLLPTSLSVEDAAILLQQVMRAFSKQASTVVFSDTVVVSEKFINDCTELFRELMHQKAEKEMKNNPVHLITEEDLKQISTLESVSTSKKDKKDERRRKATEGSGSMRGGGGGNAREYKIKKVKKKGRKDDDSDDESQSSHTGKKKPEISFMFQDEIEDFLRKHIQDAPEEFISELAEYLIKPLNKTYLEVVRSVFMSSTTSASGTGRKRTIKDLQEEVSNLYNNIRLFEKGMKFFADDTQAALTKHLLKSVCTDITNLIFNFLASDLMMAVDDPAAITSEIRKKILSKLSEETKVALTKLHNSLNEKSIEDFISCLDSAAEACDIMVKRGDKKRERQILFQHRQALAEQLKVTEDPALILHLTSVLLFQFSTHSMLHAPGRCVPQIIAFLNSKIPEDQHALLVKYQGLVVKQLVSQSKKTGQGDYPLNNELDKEQEDVASTTRKELQELSSSIKDLVLKSRKSSVTEE [UFL1]”, the “solubility in G1/S (log2)” value in the series with HeLa Kyoto [1] was -0.013. For the same sequence, the melting temperature turned out to be 50 °C in the series on HeLa Kyoto [2] (cell cycle stage: G1/S) and 49.8 °C in the series with HeLa Kyoto [2] (cell cycle stage: mitosis). Moreover, in the series with HeLa Kyoto [3], the “solubility change mitosis (log2)” value was -0.0952. Also, the thermal stability score turned out to be 1.14 in the series with HeLa Kyoto [4] (setting [5]) and 2.59 in the series with HeLa Kyoto [4] (cell cycle stage: mitosis).
Turning to “MAMGDDKSFDDEESVDGNRPSSAASAFKVPAPKTSGNPANSARKPGSAGGPKVGGASKEGGAGAVDEDDFIKAFTDVPSIQIYSSRELEETLNKIREILSDDKHDWDQRANALKKIRSLLVAGAAQYDCFFQHLRLLDGALKLSAKDLRSQVVREACITVAHLSTVLGNKFDHGAEAIVPTLFNLVPNSAKVMATSGCAAIRFIIRHTHVPRLIPLITSNCTSKSVPVRRRSFEFLDLLLQEWQTHSLERHAAVLVETIKKGIHDADAEARVEARKTYMGLRNHFPGEAETLYNSLEPSYQKSLQTYLKSSGSVASLPQSDRSSSSSQESLNRPFSSKWSTANPSTVAGRVSAGSSKASSLPGSLQRSRSDIDVNAAAGAKAHHAAGQSVRSGRLGAGALNAGSYASLEDTSDKLDGTASEDGRVRAKLSAPLAGMGNAKADSRGRSRTKMVSQSQPGSRSGSPGRVLTTTALSTVSSGVQRVLVNSASAQKRSKIPRSQGCSREASPSRLSVARSSRIPRPSVSQGCSREASRESSRDTSPVRSFQPLASRHHSRSTGALYAPEVYGASGPGYGISQSSRLSSSVSAMRVLNTGSDVEEAVADALKKPARRRYESYGMHSDDDANSDASSACSERSYSSRNGSIPTYMRQTEDVAEVLNRCASSNWSERKEGLLGLQNLLKNQRTLSRVELKRLCEIFTRMFADPHGKRVFSMFLETLVDFIQVHKDDLQDWLFVLLTQLLKKMGADLLGSVQAKVQKALDVTRESFPNDLQFNILMRFTVDQTQTPSLKVKVAILKYIETLAKQMDPGDFINSSETRLAVSRVITWTTEPKSSDVRKAAQSVLISLFELNTPEFTMLLGALPKTFQDGATKLLHNHLRNTGNGTQSSMGSPLTRPTPRSPANWSSPLTSPTNTSQNTLSPSAFDYDTENMNSEDIYSSLRGVTEAIQNFSFRSQEDMNEPLKRDSKKDDGDSMCGGPGMSDPRAGGDATDSSQTALDNKASLLHSMPTHSSPRSRDYNPYNYSDSISPFNKSALKEAMFDDDADQFPDDLSLDHSDLVAELLKELSNHNERVEERKIALYELMKLTQEESFSVWDEHFKTILLLLLETLGDKEPTIRALALKVLREILRHQPARFKNYAELTVMKTLEAHKDPHKEVVRSAEEAASVLATSISPEQCIKVLCPIIQTADYPINLAAIKMQTKVIERVSKETLNLLLPEIMPGLIQGYDNSESSVRKACVFCLVAVHAVIGDELKPHLSQLTGSKMKLLNLYIKRAQTGSGGADPTTDVSGQS [CLASP2]”, the “solubility in G1/S (log2)” value with HeLa Kyoto [1] is -0.0972. Also, the melting temperature in the series with HeLa Kyoto [2] (cell cycle stage: G1/S) and in the series on HeLa Kyoto [2] (cell cycle stage: mitosis) was 49.7 °C each time. Besides, in the series with HeLa Kyoto [3], the “solubility change mitosis (log2)” value was -0.0766. Also, the thermal stability score in the series on HeLa Kyoto [4] (setting [5]) came to 0.157; with HeLa Kyoto [4] (cell cycle stage: mitosis) it was 0.371.
In the case of “MATSPQKSPSVPKSPTPKSPPSRKKDDSFLGKLGGTLARRKKAKEVSELQEEGMNAINLPLSPIPFELDPEDTMLEENEVRTMVDPNSRSDPKLQELMKVLIDWINDVLVGERIIVKDLAEDLYDGQVLQKLFEKLESEKLNVAEVTQSEIAQKQKLQTVLEKINETLKLPPRSIKWNVDSVHAKSLVAILHLLVALSQYFRAPIRLPDHVSIQVVVVQKREGILQSRQIQEEITGNTEALSGRHERDAFDTLFDHAPDKLNVVKKTLITFVNKHLNKLNLEVTELETQFADGVYLVLLMGLLEGYFVPLHSFFLTPDSFEQKVLNVSFAFELMQDGGLEKPKPRPEDIVNCDLKSTLRVLYNLFTKYRNVE [PARVA]”, in the series with HeLa Kyoto [1], the “solubility in G1/S (log2)” value was found to be 0.479. The melting temperature worked out at 51 °C with HeLa Kyoto [2] (cell cycle stage: G1/S) and 50.8 °C with HeLa Kyoto [2] (cell cycle stage: mitosis). In addition, the “solubility change mitosis (log2)” value in the series with HeLa Kyoto [3] is -0.0689. Moreover, the thermal stability score with HeLa Kyoto [4] (setting [5]) turned out to be 1.2; in the series on HeLa Kyoto [4] (cell cycle stage: mitosis), 1.23.
In the case of “MSSFSESALEKKLSELSNSQQSVQTLSLWLIHHRKHAGPIVSVWHRELRKAKSNRKLTFLYLANDVIQNSKRKGPEFTREFESVLVDAFSHVAREADEGCKKPLERLLNIWQERSVYGGEFIQQLKLSMEDSKSPPPKATEEKKSLKRTFQQIQEEEDDDYPGSYSPQDPSAGPLLTEELIKALQDLENAASGDATVRQKIASLPQEVQDVSLLEKITDKEAAERLSKTVDEACLLLAEYNGRLAAELEDRRQLARMLVEYTQNQKDVLSEKEKKLEEYKQKLARVTQVRKELKSHIQSLPDLSLLPNVTGGLAPLPSAGDLFSTD [RPRD1B]”, the “solubility in G1/S (log2)” value with HeLa Kyoto [1] came to 0.562. Moreover, the melting temperature with HeLa Kyoto [2] (cell cycle stage: G1/S) came out at 49.5 °C; with HeLa Kyoto [2] (cell cycle stage: mitosis), 50 °C. Moreover, the “solubility change mitosis (log2)” value in the series on HeLa Kyoto [3] worked out at 0.00357. Further, the thermal stability score with HeLa Kyoto [4] (setting [5]) was -0.302; with HeLa Kyoto [4] (cell cycle stage: mitosis), 0.484.
On to “MAKAKKVGARRKASGAPAGARGGPAKANSNPFEVKVNRQKFQILGRKTRHDVGLPGVSRARALRKRTQTLLKEYKERDKSNVFRDKRFGEYNSNMSPEEKMMKRFALEQQRHHEKKSIYNLNEDEELTHYGQSLADIEKHNDIVDSDSDAEDRGTLSAELTAAHFGGGGGLLHKKTQQEGEEREKPKSRKELIEELIAKSKQEKRERQAQREDALELTEKLDQDWKEIQTLLSHKTPKSENRDKKEKPKPDAYDMMVRELGFEMKAQPSNRMKTEAELAKEEQEHLRKLEAERLRRMLGKDEDENVKKPKHMSADDLNDGFVLDKDDRRLLSYKDGKMNVEEDVQEEQSKEASDPESNEEEGDSSGGEDTEESDSPDSHLDLESNVESEEENEKPAKEQRQTPGKGLISGKERAGKATRDELPYTFAAPESYEELRSLLLGRSMEEQLLVVERIQKCNHPSLAEGNKAKLEKLFGFLLEYVGDLATDDPPDLTVIDKLVVHLYHLCQMFPESASDAIKFVLRDAMHEMEEMIETKGRAALPGLDVLIYLKITGLLFPTSDFWHPVVTPALVCLSQLLTKCPILSLQDVVKGLFVCCLFLEYVALSQRFIPELINFLLGILYIATPNKASQGSTLVHPFRALGKNSELLVVSAREDVATWQQSSLSLRWASRLRAPTSTEANHIRLSCLAVGLALLKRCVLMYGSLPSFHAIMGPLQALLTDHLADCSHPQELQELCQSTLTEMESQKQLCRPLTCEKSKPVPLKLFTPRLVKVLEFGRKQGSSKEEQERKRLIHKHKREFKGAVREIRKDNQFLARMQLSEIMERDAERKRKVKQLFNSLATQEGEWKALKRKKFKK [NOP14]”, for which the “solubility in G1/S (log2)” value in the series with HeLa Kyoto [1] was -1.66. Also, the melting temperature worked out at 49.2 °C in the series with HeLa Kyoto [2] (cell cycle stage: G1/S) and 50.4 °C in the series on HeLa Kyoto [2] (cell cycle stage: mitosis). Also, the “solubility change mitosis (log2)” value in the series on HeLa Kyoto [3] turned out to be 0.737. The thermal stability score in the series with HeLa Kyoto [4] (setting [5]) came to 0.586; in the series with HeLa Kyoto [4] (cell cycle stage: mitosis), 1.66.
Consider “MLGIWTLLPLVLTSVARLSSKSVNAQVTDINSKGLELRKTVTTVETQNLEGLHHDGQFCHKPCPPGERKARDCTVNGDEPDCVPCQEGKEYTDKAHFSSKCRRCRLCDEGHGLEVEINCTRTQNTKCRCKPNFFCNSTVCEHCDPCTKCEHGIIKECTLTSNTKCKEEGSRSNLGWLCLLLLPIPLIVWVKRKEVQKTCRKHRKENQGSHESPTLNPETVAINLSDVDLSKYITTIAGVMTLSQVKGFVRKNGVNEAKIDEIKNDNVQDTAEQKVQLLRNWHQLHGKKEAYDTLIKDLKKANLCTLAEKIQTIILKDITSDSENSNFRNEIQSLV [FAS]”, for which the “solubility in G1/S (log2)” value with HeLa Kyoto [1] was found to be 0.525. Further, the melting temperature in the series with HeLa Kyoto [2] (cell cycle stage: G1/S) was 54.1 °C; in the series on HeLa Kyoto [2] (cell cycle stage: mitosis) it was 54.4 °C. Besides, in the series on HeLa Kyoto [3], the “solubility change mitosis (log2)” value was found to be 0.0304. Besides, the thermal stability score with HeLa Kyoto [4] (setting [5]) was -0.244; with HeLa Kyoto [4] (cell cycle stage: mitosis), -1.13.
